The source of these data is the supplement of paper PMC7877785.

A short description of this data set: self-splicing fitness, log relative to wild type (ln ratio); higher = more splicing; Tetrahymena group I intron in knt gene, E. coli kanamycin selection, DiMSum; sequences stand for … in CUCUCU…GGAGGGAAAAGUUAUCAGGCAUGCACCUGGUAGCUAGUCUUUAAACCAAUAGAUUGCAUCGGUUUAAAAGGCAAGACCGUCAAAUUGCGGGAAAGGGGUCAACAGCCGUUCAGUACCAAGUCUCAGGGGAAACUUUGAGAUGGCCUUGCAAAGGGUAUGGUAAUAAGCUGACGGACAUGGUCCUAACCACGCAGCCAAGUCCUAAGUCAACAGAUCUUCUGUUGAUAUGGAUGCAGUUCACAGACUAAAUGUCGGUCGGGGAAGAUGUAUUCUUCUCAUAAGAUAUAGUCGGACCUCUCCUUAAUGGGAGCUAGCGGAUGAAGUGAUGCAACACUGGAGCCGCUGGGAACUAAUUUGUAUGCGAAAGUAUAUUGAUUAGUUUUGGAGUACUCGUGGUCG
In a few lines: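 Library with all eight P1ex-region intron nucleotides randomised, intron inside the knt kanamycin-resistance gene on pET-22b(+), in E. coli BL21(DE3). Cells grew overnight at 37°C or 30°C on LB agar with or without 25 μg/mL kanamycin (plus 100 μg/mL carbenicillin, 50 μM IPTG, 0.2% rhamnose), in six replicate transformations. Pooled colonies were amplicon-sequenced on Illumina HiSeq 2500. DiMSum fitness is the error-weighted combination of wild-type-normalised replicate fold changes, kanamycin versus none.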

± gives the uncertainty stated by the source.

As for GAAUAGCAAUAUUACGUGCG, the “self-splicing fitness (ln)” value (30 °C) is -1.2 ± 0.074 and the “self-splicing fitness (ln)” value (37 °C) is -0.181 ± 0.094. Taken in the same sequence, the figures for AGGCAGCAAUAUUACGCUAU were -1.45 ± 0.088 and -0.464 ± 0.092. Taken in the same sequence, the figures for GGUUAGCAAUAUUACGUCCA were -1.17 ± 0.3 and -0.199 ± 0.34. Turning to AUGUAGCAAUAUUACGAUGC, the “self-splicing fitness (ln)” value (30 °C) is -1.49 ± 0.11 and the “self-splicing fitness (ln)” value (37 °C) was -0.827 ± 0.16. On the same counts, the results for CGUCAGCAAUAUUACGACUA are -0.58 ± 0.13 and 0.632 ± 0.18. Taken in the same sequence, the figures for UUUCAGCAAUAUUACGGGCG were -1.02 ± 0.098 and 0.331 ± 0.14. Taken in the same sequence, the figures for CUGAAGCAAUAUUACGGGAC were -0.993 ± 0.072 and -0.612 ± 0.1.

Regarding CAACAGCAAUAUUACGUCCG, the “self-splicing fitness (ln)” value (30 °C) is -0.0787 ± 0.06 and the “self-splicing fitness (ln)” value (37 °C) was 0.513 ± 0.076.

For CCCAAGCAAUAUUACGACUU, the “self-splicing fitness (ln)” value (30 °C) is -4.21 ± 0.2 and the “self-splicing fitness (ln)” value (37 °C) is -2.9 ± 0.17.

With GAAGAGCAAUAUUACGCCUU, the “self-splicing fitness (ln)” value is, setting by setting: (30 °C) -2.52 ± 0.37; (37 °C) -1.55 ± 0.33. Take GACCAGCAAUAUUACGUCUG: the “self-splicing fitness (ln)” value (30 °C) was -2.93 ± 0.23 and the “self-splicing fitness (ln)” value (37 °C) is -1.74 ± 0.21. On to AUGGAGCAAUAUUACGGGCU, for which the “self-splicing fitness (ln)” value (37 °C) was -1.55 ± 0.41. In the case of CAAGAGCAAUAUUACGCAUU, the “self-splicing fitness (ln)” value runs as follows: (30 °C) -3.39 ± 0.27; (37 °C) -2.51 ± 0.21. With GAAUAGCAAUAUUACGGUUG, the “self-splicing fitness (ln)” value is, setting by setting: (30 °C) -1.27 ± 0.092; (37 °C) -0.561 ± 0.13.

Regarding GCUAAGCAAUAUUACGAUGU, the “self-splicing fitness (ln)” value runs as follows: (30 °C) -1.19 ± 0.072; (37 °C) -0.496 ± 0.087. Taken in the same sequence, the figures for CAUCAGCAAUAUUACGUGGA were -3.6 ± 0.19 and -2.05 ± 0.12.

Regarding AAGGAGCAAUAUUACGAUCC, the “self-splicing fitness (ln)” value (37 °C) was 0.127 ± 0.31. Still for that read-out and setting: for UAAUAGCAAUAUUACGGAAA the value was -2.44 ± 0.26.

For CCGGAGCAAUAUUACGAGCG, the “self-splicing fitness (ln)” value reads like this: (30 °C) -0.715 ± 0.082; (37 °C) 0.256 ± 0.12. On the same counts, the results for AUACAGCAAUAUUACGAACC are -2.11 ± 0.15 and -0.458 ± 0.16. On to AUUAAGCAAUAUUACGUGUC, for which the “self-splicing fitness (ln)” value (30 °C) is -3.58 ± 0.21 and the “self-splicing fitness (ln)” value (37 °C) was -1.02 ± 0.16. On the same counts, the results for GCACAGCAAUAUUACGACAA are -1.18 ± 0.087 and -1.22 ± 0.087. As for GCCAAGCAAUAUUACGGCCC, the “self-splicing fitness (ln)” value reads like this: (30 °C) -2.13 ± 0.2; (37 °C) -1.57 ± 0.22. Take UUAGAGCAAUAUUACGAGGU: the “self-splicing fitness (ln)” value (37 °C) was -2.29 ± 0.35. With CCCCAGCAAUAUUACGGCGC, the “self-splicing fitness (ln)” value was -3.41 ± 0.17 (30 °C) and -2.98 ± 0.24 (37 °C). Taken in the same sequence, the figures for AUACAGCAAUAUUACGCCAU were -2.01 ± 0.13 and -0.757 ± 0.14. Take AGUAAGCAAUAUUACGGUUA: the “self-splicing fitness (ln)” value was -0.833 ± 0.11 (30 °C) and -0.477 ± 0.092 (37 °C). For AUAGAGCAAUAUUACGCUCU, the “self-splicing fitness (ln)” value is -2.65 ± 0.28 (30 °C) and -1.32 ± 0.42 (37 °C).

On to ACGUAGCAAUAUUACGUUCG, for which the “self-splicing fitness (ln)” value by setting is: (30 °C) -2.69 ± 0.12; (37 °C) -0.757 ± 0.12. On the same counts, the results for GACGAGCAAUAUUACGGGCU are -3.61 ± 0.2 and -2.21 ± 0.19. Taken in the same sequence, the figures for AGCGAGCAAUAUUACGAUGU were -2.99 ± 0.19 and -1.46 ± 0.18.

GCACAGCAAUAUUACGGUGG: the “self-splicing fitness (ln)” value was -1.54 ± 0.048 (30 °C) and -1.35 ± 0.07 (37 °C). On the same counts, the results for CCGUAGCAAUAUUACGUUCU are -3.34 ± 0.28 and -3.36 ± 0.42.

CAGUAGCAAUAUUACGGGUU: the “self-splicing fitness (ln)” value is -2.49 ± 0.18 (30 °C) and -1.82 ± 0.2 (37 °C).
